The numbers were not newly measured in PMC3268021, which cites them from elsewhere.

Read-outs that look alike come from different tables or passages of the source.

Series [1] addresses TXA2R (agonist-activated) (UniProt P21731).
Another series concerns the target TXA2R (ligand-free) (UniProt P21731).
For series [2], the target named is phospholipase C (UniProt P19174).
For series [3] the target is unchanged. This is another data set of the same source.
Another series deals with Calmodulin (UniProt P0DP23).

UniProt P19174, sequence (P19174 2-1290): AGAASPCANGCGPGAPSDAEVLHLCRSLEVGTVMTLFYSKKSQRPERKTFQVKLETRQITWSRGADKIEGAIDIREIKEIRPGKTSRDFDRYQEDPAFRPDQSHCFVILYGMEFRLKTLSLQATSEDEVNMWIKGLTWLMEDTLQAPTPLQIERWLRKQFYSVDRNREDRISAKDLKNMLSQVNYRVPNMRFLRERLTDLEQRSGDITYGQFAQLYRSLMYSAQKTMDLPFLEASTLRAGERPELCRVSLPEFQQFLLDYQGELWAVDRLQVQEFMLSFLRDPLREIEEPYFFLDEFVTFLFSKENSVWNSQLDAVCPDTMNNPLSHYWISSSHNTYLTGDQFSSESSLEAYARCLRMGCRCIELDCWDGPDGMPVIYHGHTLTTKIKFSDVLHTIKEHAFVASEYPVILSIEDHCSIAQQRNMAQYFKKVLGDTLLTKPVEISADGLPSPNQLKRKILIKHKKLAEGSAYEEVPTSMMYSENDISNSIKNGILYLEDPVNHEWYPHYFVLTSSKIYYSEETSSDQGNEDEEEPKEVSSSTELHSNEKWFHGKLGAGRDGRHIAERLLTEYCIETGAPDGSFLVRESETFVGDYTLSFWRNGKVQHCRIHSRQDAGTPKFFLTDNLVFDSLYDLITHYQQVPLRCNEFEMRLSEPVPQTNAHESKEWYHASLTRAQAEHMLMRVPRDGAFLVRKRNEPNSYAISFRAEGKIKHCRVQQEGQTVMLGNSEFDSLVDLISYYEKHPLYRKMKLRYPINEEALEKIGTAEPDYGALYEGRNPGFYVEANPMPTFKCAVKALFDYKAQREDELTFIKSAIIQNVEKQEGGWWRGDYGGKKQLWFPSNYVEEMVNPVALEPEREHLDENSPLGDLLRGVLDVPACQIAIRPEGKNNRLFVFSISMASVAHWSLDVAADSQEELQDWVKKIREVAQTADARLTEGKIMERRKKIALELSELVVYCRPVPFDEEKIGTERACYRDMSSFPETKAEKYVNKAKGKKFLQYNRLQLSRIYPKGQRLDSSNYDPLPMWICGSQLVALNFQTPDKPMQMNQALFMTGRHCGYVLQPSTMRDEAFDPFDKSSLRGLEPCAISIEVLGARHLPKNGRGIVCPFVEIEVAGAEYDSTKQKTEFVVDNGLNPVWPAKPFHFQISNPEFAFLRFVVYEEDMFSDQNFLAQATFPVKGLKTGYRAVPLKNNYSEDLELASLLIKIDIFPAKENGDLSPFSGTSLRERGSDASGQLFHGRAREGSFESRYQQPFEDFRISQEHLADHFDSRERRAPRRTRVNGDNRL

By Kd is commonly meant the equilibrium constant for the complex coming apart. “Gαq C-terminal peptide C-terminal 15-mer peptide (from UniProt P50148)”: the Kd was 240 µM in series [1] and 17 µM with TXA2R (ligand-free).

Usually Ki stands for a measure of affinity in units of concentration, obtained from inhibition or displacement. Consider “PCI-peptide 724-736 724-736 (from UniProt P19174)”, for which the Ki with phospholipase C [2] was 120 µM; with phospholipase C [3], 3.5 µM. Consider “pAC28 peptide of AC1 495-522 (from UniProt P19754)”, for which the Kd with Calmodulin is 0.002 µM.
